Measured values: US20080081025A1, “Uv Absorbing Chromophores Covalently Bonded to Hyperbranched Polymers” (DSM IP ASSETS B.V., priority 2004, published 2008)

Columns and labels:
[1] = In vitro SPF on PMMA plates using the SPF-290S Analyzer System; conditions: sunscreen containing 5% UV filter; 1.4 mg sunscreen per cm^2 on PMMA plates; triplicate
[2] = UV absorption (specific extinction E1/1) of the polymeric filter; type: physicochemical; conditions: in CHCl3 at 309 nm
Experimental: (§1) Cesium carbonate (16 g, 50 mmol) and potassium iodate (50 mg) were added to a solution of 4-(1,3-benzoxazol-2-yl)-phenol I (8.9 g, 42 mmol) (prepared according to Passerini, J. Chem. Soc. 1954, 2256-2257) in NMP (N-methylpyrolidon) (100 mL) and the mixture stirred under Argon at 80° C. for 20 min. A solution of mesylated poly(glycerol-b-propylene oxide) (7.48 g, 4.4 mmol, 35 mmol MsO) in NMP (60 mL) was added dropwise and the reaction mixture stirred at 80° C. for 12 h. Water and ethyl acetate were added (200 mL each), an orange precipitate was separated by filtration, and the aqueous layer was extracted with ethyl acetate (2×100 mL). […] The amount of attached chromophore was determined using ^1H NMR, comparing the integration of the signals of the phenol's aromatic protons at 6.99 and 8.12 ppm to trimethylolpropane CH3 at 0.87 ppm, to give an average of about 8 chromophores/polymer.
Potassium tert. butylate (2.3 g) were added to a solution of 4-Dicyanomethylene-2,6-dimethyl-1,4-dihydropyridine-N-ethane-2-ol (4.3 g, 20 mmol) in NMP (50 mL) and the mixture stirred under Argon at rt. for 10 min. […] This product was chromatographed in Ethylacetate/Ethanol=19:1 and the fractions were analyzed by GPC. […]
Hybrane200 D2000 (WO 99/16810) was supplied from DSM Hybrane (Geleen, The Netherlands) with a Mn of about 2000 g/mol as determined by GPC. […]

[3] = Solubility in Tegosoft TN (C12-C15 alkylbenzoate); type: physicochemical
Experimental: as §1
Hybrane200 D2000 (WO 99/16810) was supplied from DSM Hybrane (Geleen, The Netherlands) with a Mn of about 2000 g/mol as determined by GPC. […] The amount of attached chromophore was determined using ^1H NMR, comparing the integration of the signals of the aromatic protons at 6.59 and 7.85 ppm to the CH3 of the aliphatic chain at 0.86 ppm, to give an average of about 8 chromophores/polymer.

[4] = Photostability according to G. Berset et al., applying the prepared sunscreen instead of a liquid film; type: physicochemical; conditions: Brij O/W sunscreen containing 5% (w/w) chromophore; Berset method
Experimental: The photostability of the conjugates according to the present invention may be measured according to G. Berset et al. International Journal of Cosmetic Science 1996, 18(3), 167-177.
The hyperbranched chromophore II (5.0 g, corresponding to 5% (w/w) UV-filter/sunscreen) was dissolved in Tegosoft TN at 80° C. and added to a mixture of Brij 72 (INCI: Steareth-2) (2.0 g), Brij 721 (INCI: Steareth-21) (2.0 g), Lanette O (cetearyl alcohol) (2.0 g), Estol GMM 3650 (glyceryl monomyristate) (2.0 g), BHT (butylhydroxytoluene) (0.05 g) and Phenonip (phenoxyethanol and methyl-, ethyl-, propyl-, butylparaben) (0.8 g). The mixture was shortly heated to 80° C. in order to melt solid emulsifiers. To the still warm mixture (70-80° C.) a preheated solution (˜80° C.) of glycerin (4.0 g) and EDTA BD (0.1 g) in water (62.95 g) and subsequently 10% aqueous KOH (0.1 g) as well as Sepigel 305 (polyacrylamide and C13-C14 isoparaffin and Laureth-7) (1.0 g) were added slowly under continuous stirring. The resulting emulsion was stirred until a temperature of about 40° C. was reached, homogenized with 24,000 rpm using a ULTRA-TURRAX®, and finally stirred for an additional hour. […] Each in vitro SPF was determined in triplicate to give for chromophore II and Parsol® MCX an average of 6.6 (II) and 6.8, respectively.

| Compound | in vitro SPF (average) [1] | E1/1/-value [2] | solubility in Tegosoft TN [3] | photostability: chromophore recovered [4] |
| --- | --- | --- | --- | --- |
| CCCCC(CC)COC(=O)C=Cc1ccc(OC)cc1 (centres unmarked) [Parsol® MCX, 2-ethylhexyl 4-methoxycinnamate, reference compound] | 6.8 | – | – | – |
| CCC(COCC(COCC(C)Oc1ccc(-c2nc3ccccc3o2)cc1)OCC(C)OCC(C)Oc1ccc(-c2nc3ccccc3o2)cc1)(COCC(COCC(C)OCC(C)Oc1ccc(-c2nc3ccccc3o2)cc1)OCC(C)Oc1ccc(-c2nc3ccccc3o2)cc1)COCC(COCC(COCC(C)Oc1ccc(-c2nc3ccccc3o2)cc1)OCC(C)Oc1ccc(-c2nc3ccccc3o2)cc1)OCC(COCC(C)Oc1ccc(-c2nc3ccccc3o2)cc1)OCC(C)Oc1ccc(-c2nc3ccccc3o2)cc1 (centres unmarked) [chromophore II] | 6.6 | 840 | at least 24 % (w/w) | 96% |
